B1: IP088: Fc fusion, IgG1-TM, SEQ ID NO:105; agonist peptide YSEGTFTSDYSKLLEEEAVRLFIEWLVKGP (SEQ ID NO:15) (protein)
chain: YSEGTFTSDYSKLLEEEAVRLFIEWLVKGPAAAGGSGSTASSGSGSATGGGGAATHTCPPCPAPEF
modifications: also: Fc fusion, IgG1-TM
B2: IP367 (protein)
chain: YSEGTFTSDYRILKERQAIDEFIAWLLKGGAAAGGSGSTASSGSGSATGGGGAATHTCPPC

Columns and labels:
[1] = biological target: T1, mouse GIP receptor (mGIPr) (Mus musculus, UniProt Q0P543); assay: BSA-cAMP assay, cells expressing mouse GIP receptor; type: cell-based
T1 construct: expressed in transfected cells; host or cells: HEK293s or CHO cells
T1 sequence (Q0P543 19-460): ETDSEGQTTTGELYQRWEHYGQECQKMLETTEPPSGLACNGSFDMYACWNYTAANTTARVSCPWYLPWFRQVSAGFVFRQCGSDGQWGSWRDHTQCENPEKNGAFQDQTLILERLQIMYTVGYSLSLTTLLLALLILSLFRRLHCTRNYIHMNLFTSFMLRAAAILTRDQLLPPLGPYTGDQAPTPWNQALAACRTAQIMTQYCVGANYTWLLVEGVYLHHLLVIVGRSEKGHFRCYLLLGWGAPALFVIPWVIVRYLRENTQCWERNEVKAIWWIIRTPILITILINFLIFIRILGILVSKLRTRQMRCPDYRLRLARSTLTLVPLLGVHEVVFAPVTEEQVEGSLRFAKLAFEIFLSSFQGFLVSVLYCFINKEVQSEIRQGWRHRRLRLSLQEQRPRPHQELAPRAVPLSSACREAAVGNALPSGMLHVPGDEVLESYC
In short: (§1)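 EC50 is the midpoint of an unconstrained 4-parameter logistic fit to HTRF cAMP data, expressed as percent of maximal native agonist response, from two separate occasions. Rodent (mouse, rat) GLP-1R- or GIPR-expressing cells were incubated with compound 30 min at room temperature in 0.1% BSA medium, in duplicate.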

[2] = biological target: T2, rat GLP-1 receptor (rGLP-1r) (Rattus norvegicus, UniProt P32301); assay: BSA-cAMP assay, cells expressing rat GLP-1 receptor; type: cell-based
T2 construct: expressed in transfected cells; host or cells: HEK293s or CHO cells
T2 sequence (P32301 22-463): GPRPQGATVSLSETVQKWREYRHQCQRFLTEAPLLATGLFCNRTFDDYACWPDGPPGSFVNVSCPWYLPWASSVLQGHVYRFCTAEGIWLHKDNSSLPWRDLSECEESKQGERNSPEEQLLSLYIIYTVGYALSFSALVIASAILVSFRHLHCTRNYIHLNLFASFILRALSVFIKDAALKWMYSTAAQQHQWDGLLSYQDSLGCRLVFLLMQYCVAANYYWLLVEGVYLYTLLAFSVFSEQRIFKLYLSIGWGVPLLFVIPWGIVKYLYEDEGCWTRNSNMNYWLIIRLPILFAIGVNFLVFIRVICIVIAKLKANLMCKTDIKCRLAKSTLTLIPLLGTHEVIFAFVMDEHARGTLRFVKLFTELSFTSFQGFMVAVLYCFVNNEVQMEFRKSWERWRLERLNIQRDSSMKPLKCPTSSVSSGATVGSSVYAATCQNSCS
In short: as §1

[3] = Extended pharmacokinetics, serum ELISA for protein (Fc) detection; type: in vivo, CD male rats; conditions: 1 mg/kg subcutaneously or intravenously, serum out to 168 hours
Description: More extended pharmacokinetic assays to determine protein stability and activity were performed as follows. CD male rats (n=3) were injected subcutaneously or intravenously with 1 mg/kg IP088 or GLP1a-Fc. Periodic serum samples were obtained out to 168 hours. The serum samples were subjected to ELISA for protein (Fc) detection by the following method. ELISA plates (Costar 3690) were coated with Mouse anti-human IgG (JCD-10) 1/500 in PBS (final concentration 1 μg/ml). […] was added to each well and the plates were incubated overnight at 4° C. Following washing with PBS-Tween (PBS-T), the plates were blocked with […] 1% BSA in PBS for 1 h at RT with gentle shaking. Following washing with PBS-T, standards, and dilutions of […] samples were added (50 μl/well), and the plate was incubated for 2 h at RT with gentle shaking. Following washing […] biotinylated mouse anti-human IgG (JCD-10) diluted 1/1000 in ELISA incubation buffer (final concentration 0.5 μg/ml) was added to each well and the plates were incubated for 1 h at RT with gentle shaking. Following washing […] of Streptavidin-HRP diluted 1/1000 in ELISA incubation buffer was added to each well, and the plates were incubated for 45 min at RT with gentle shaking. […]

[4] = PK by Activity
Description: Table printed on a drawing sheet, FIG. 3D-F
Circles: IV injection of 1 mg/kg, squares: subcutaneous injection of 1 mg/kg. Pharmacokinetic parameters Cmax, bioavailability (F %) and half-life T1/2 are compared in panel C.
Circles: IV injection of 1 mg/kg, squares: subcutaneous injection of 1 mg/kg. Pharmacokinetic parameters Cmax, bioavailability (F %) and half life T112 are compared in panel F.
First reader's note: Panel F of FIG. 3D-F; the pharmacokinetic parameters were derived from plasma levels measured by activity (sheet heading 'PK by Activity').

Molecule	potency for GIPr, in words ([1]; mouse receptor)	potency for GLP-1r, in words ([2]; rat receptor)	PK profile by Fc ELISA (Cmax, bioavailability, half-life), in words [3]	Cmax [4] [nM]	F (%) [4] [%]	t½ [4] [h]	EC50 ([1]; Batch 1, BSA-cAMP assay, read-out: mGIPr cAMP activity EC50) [nM]	EC50 ([2]; Batch 1, BSA-cAMP assay, read-out: rGLP1r cAMP activity EC50) [nM]
B1	relatively lower potency	high potency	equivalent PK profiles	98	72	24		
B2							0.031	8

— US20160185837A1 (Medimmune Limited, priority 2013, published 2016)
